Source: patent US20120214748A1 (published 2012)
Bridge positions count the residues as written; N and C are the ends. Ends that are not written are not given here.

T1: MASP-1 CCP1-CCP2-SP (human, UniProt P48740 298-699, limits assumed)
T1 construct: domain: CCP1-CCP2-SP; Recombinant fragment
T1 sequence (looked up): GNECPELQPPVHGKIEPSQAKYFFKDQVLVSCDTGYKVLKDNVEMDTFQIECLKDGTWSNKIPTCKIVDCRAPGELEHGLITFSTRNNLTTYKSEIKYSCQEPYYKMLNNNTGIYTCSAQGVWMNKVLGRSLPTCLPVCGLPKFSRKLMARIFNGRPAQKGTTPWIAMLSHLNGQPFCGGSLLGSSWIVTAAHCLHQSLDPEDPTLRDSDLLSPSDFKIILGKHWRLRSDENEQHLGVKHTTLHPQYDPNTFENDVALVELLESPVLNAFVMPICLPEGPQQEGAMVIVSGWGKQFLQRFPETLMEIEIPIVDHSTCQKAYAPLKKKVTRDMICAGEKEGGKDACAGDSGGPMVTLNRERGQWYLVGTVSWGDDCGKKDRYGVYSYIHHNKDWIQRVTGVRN


How the values were obtained:
MASP-1 CCP1-CCP2-SP [1] = biological target: T1, MASP-1 CCP1-CCP2-SP; test: enzyme inhibition, Z-L-Lys-SBzl substrate, tight-binding fit
MASP-2 CCP1-CCP2-SP [2] = biological target: T2, MASP-2 CCP1-CCP2-SP (human, UniProt O00187 298-686, limits assumed); test: as above
T2 construct: domain: CCP1-CCP2-SP; Recombinant fragment

Trypsin = test: as above
Thrombin = test: enzyme inhibition, Z-Gly-Pro-Arg-pNa substrate, tight-binding fit
MASP-1 CCP1-CCP2-SP [3] = biological target: T1, MASP-1 CCP1-CCP2-SP; test: preliminary experiments, method not described
MASP-2 CCP1-CCP2-SP [4] = biological target: T2, MASP-2 CCP1-CCP2-SP; test: preliminary experiments, method not described

Chain of Trypsin (P00760 24-246): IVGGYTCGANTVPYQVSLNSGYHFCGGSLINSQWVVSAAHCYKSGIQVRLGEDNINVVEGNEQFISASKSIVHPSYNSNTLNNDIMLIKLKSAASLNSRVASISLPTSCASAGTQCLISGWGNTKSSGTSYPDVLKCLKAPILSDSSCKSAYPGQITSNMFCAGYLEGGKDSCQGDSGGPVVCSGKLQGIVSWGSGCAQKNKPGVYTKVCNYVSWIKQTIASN
T2 sequence (O00187 298-686 limits assumed): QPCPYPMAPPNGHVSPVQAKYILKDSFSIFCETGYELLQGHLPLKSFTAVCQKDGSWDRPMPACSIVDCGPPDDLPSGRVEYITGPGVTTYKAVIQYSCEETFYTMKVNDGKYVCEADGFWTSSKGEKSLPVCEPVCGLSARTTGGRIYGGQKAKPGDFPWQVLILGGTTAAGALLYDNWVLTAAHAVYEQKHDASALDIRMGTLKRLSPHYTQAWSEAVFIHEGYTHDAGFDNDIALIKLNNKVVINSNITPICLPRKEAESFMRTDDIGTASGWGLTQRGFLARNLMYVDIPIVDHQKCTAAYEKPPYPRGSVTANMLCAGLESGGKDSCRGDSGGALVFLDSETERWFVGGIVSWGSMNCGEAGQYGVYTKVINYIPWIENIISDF

Binder | Ki (MASP-1 CCP1-CCP2-SP [1]) [nM] | Ki (MASP-2 CCP1-CCP2-SP [2]) [nM] | Ki (Trypsin) [nM] | Ki (Thrombin) [nM] | binding result (MASP-1 CCP1-CCP2-SP [3]) | binding result (MASP-2 CCP1-CCP2-SP [4])
GMCSRSYPPVCIPD (disulfide 3-11 (inferred), Point mutant of M2-6E) [M2-6E-Y2M] | 4000 | 1500 | 4000 | – | – | –
GWCSRSYPPVCIPD (disulfide 3-11 (inferred), Point mutant of M2-6E) [M2-6E-Y2W] | – | 580 | 1700 | – | – | –
GYCSRSIPPVCIPD (disulfide 3-11 (inferred), Point mutant of M2-6E) [M2-6E-Y7I] | – | 7000 | 160 | – | – | –
GVCSRSLPPICWPD (disulfide 3-11 (inferred), The parent M1-3E was not tested as a synthetic peptide) [M1-3E-Y12W] | 140 | 5000 | 170 | – | – | –
GICSRSLPPICIPD (disulfide 3-11 (inferred), Synthetic consensus peptide of the non-selective group, linear form; also called "NS" peptide; non-selective peptide) [M2-4G] | 65 | 1030 | 260 | 10000 | – | –
cyclo(GICSRSLPPICIPD) (disulfide 3-11 (inferred), Backbone-cyclised form of M2-4G) [M2-4G cyclic] | 275 | 750 | 350 | – | – | –
EVTCEPGTTFKDKCNTCRCGSDGKSAACTLKACPQ (other, UniProt O46162 57-91, looked up) [Schistocerca Gregaria Chymotrypsin Inhibitor (SGCI)] | – | – | – | – | no binding | no binding
